Measurements: patent US20190201491A1 (ELANCO US, published 2019)

Biological target: beta Klotho and FGFR1c (Fibroblast Growth Factor Receptor isoform 1c) expressed on the cell surface of a …
Experiment: cell-based or functional assay

B1: wild-type (WT) bFGF-21 (ligand)
chain: HPIPDSSPLLQFGGQVRQRYLYTDDAQETEAHLEIRADGTVVGAARQSPESLLELKALKPGVIQILGVKTSRFLCQGPDGKLYGSLHFDPKACSFRELLLEDGYNVYQSETLGLPLRLPPQRSSNRDPAPRGPARFLPLPGLPAAPPDPPGILAPEPPDVGSSDPLSMVGPSYGRSPSYTS
EC50 (ng/mL), STEADY-GLO Elk1 luciferase reporter assay: 38 ng/mL
Fold loss potency relative to WT bFGF21, Elk1 luciferase reporter assay: 1 fold
